From patent US20250145729A1 (DENALI THERAPEUTICS, published 2025)

T1: circularly permuted human TfR apical domain (human)
T1 construct: TfR residues 326-379 stand N-terminal to 194-296, loop 297-325 deleted; also called huTfR Apical Domain
T1 chain: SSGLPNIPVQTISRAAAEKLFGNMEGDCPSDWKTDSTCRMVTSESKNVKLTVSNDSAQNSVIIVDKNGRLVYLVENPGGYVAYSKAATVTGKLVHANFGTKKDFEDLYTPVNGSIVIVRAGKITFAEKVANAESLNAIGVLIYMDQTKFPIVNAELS

T2: human CD98hc (human, UniProt P08195 109-529)
T2 construct: also called huCD98hc; CD98 heavy chain
T2 sequence: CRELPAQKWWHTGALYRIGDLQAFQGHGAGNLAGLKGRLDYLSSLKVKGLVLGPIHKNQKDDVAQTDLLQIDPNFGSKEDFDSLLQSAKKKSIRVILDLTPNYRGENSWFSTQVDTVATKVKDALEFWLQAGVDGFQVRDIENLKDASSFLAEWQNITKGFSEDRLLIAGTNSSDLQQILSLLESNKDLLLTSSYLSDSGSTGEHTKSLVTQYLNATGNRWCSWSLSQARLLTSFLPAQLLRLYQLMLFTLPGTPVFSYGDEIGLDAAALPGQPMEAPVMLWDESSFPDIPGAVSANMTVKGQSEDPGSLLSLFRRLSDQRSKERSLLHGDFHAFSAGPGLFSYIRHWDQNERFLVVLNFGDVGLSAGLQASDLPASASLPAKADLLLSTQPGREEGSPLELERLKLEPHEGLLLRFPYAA

B1: 6.5.11.5.42.2.d11 (Fc fusion)
chain: APELLGGPSVFLFPPKPKDTLMISRTPEVTCVVVDVSHEDPEVKFNWYVDGVEVHNAKTKPREEQYNSTYRVVSVLTVLHQDWLNGKEYKCKVSNKALPAPIEKTISKAKGQPREPQVYTLPPSRDELTKNQVSLTCLVKGFYPSDIAVEWFSDGSKESNYKTTPPVLDSDGSFFLYSKLTVDKSRWQQGNLFACEVMHEALHNHYTYKLLSLSPGK
B2: 6.5.11.5.42.2.d14 (Fc fusion)
chain: APELLGGPSVFLFPPKPKDTLMISRTPEVTCVVVDVSHEDPEVKFNWYVDGVEVHNAKTKPREEQYNSTYRVVSVLTVLHQDWLNGKEYKCKVSNKALPAPIEKTISKAKGQPREPQVYTLPPSRDELTKNQVSLTCLVKGFYPSDIAVEWFSNGQKETNYKTTPPVLDSDGSFFLYSKLTVDKSRWQQGNLFACEVMHEALHNHYTYKLLSLSPGK
B3: 6.5.11.5.42.2.d15 (Fc fusion)
chain: APELLGGPSVFLFPPKPKDTLMISRTPEVTCVVVDVSHEDPEVKFNWYVDGVEVHNAKTKPREEQYNSTYRVVSVLTVLHQDWLNGKEYKCKVSNKALPAPIEKTISKAKGQPREPQVYTLPPSRDELTKNQVSLTCLVKGFYPSDIAVEWFSFGQKETNYKTTPPVLDSDGSFFLYSKLTVDKSRWQQGNLFACEVMHEALHNHYTYKLLSLSPGK
B4: 6.5.11.5.42.2.d12 (Fc fusion)
chain: APELLGGPSVFLFPPKPKDTLMISRTPEVTCVVVDVSHEDPEVKFNWYVDGVEVHNAKTKPREEQYNSTYRVVSVLTVLHQDWLNGKEYKCKVSNKALPAPIEKTISKAKGQPREPQVYTLPPSRDELTKNQVSLTCLVKGFYPSDIAVEWFSDGSPENNYKTTPPVLDSDGSFFLYSKLTVDKSRWQQGNLFACEVMHEALHNHYTYKLLSLSPGK
B5: 6.5.11.5.42.2.d13 (Fc fusion)
chain: APELLGGPSVFLFPPKPKDTLMISRTPEVTCVVVDVSHEDPEVKFNWYVDGVEVHNAKTKPREEQYNSTYRVVSVLTVLHQDWLNGKEYKCKVSNKALPAPIEKTISKAKGQPREPQVYTLPPSRDELTKNQVSLTCLVKGFYPSDIAVEWFSDGSPENNYKTTPPVLDSDGSFFLYSKLTVDKSRWQQGNVFACEVMHEALHNHYTYKLLSLSPGK
B6: LLB2-10-8.d20 (Fc fusion)
chain: APELLGGPSVFLFPPKPKDTLMISRTPEVTCVVVDVSHEDPEVKFNWYVDGVEVHNAKTKPREEQYNSTYRVVSVLTVLHQDWLNGKEYKCKVSNKALPAPIEKTISKAKGQPREPQVYTLPPSRDELTKNQVSLTCLVKGFYPSDIAVLWSSHYELENNYKTTPPVLDSDGSFFLYSKLTVDKSRWQQGNVFACNVYHEALHNHYTFKNLALSPGK
notes: Fc part only
B7: LLB2-10-8.d23 (Fc fusion)
chain: APELLGGPSVFLFPPKPKDTLMISRTPEVTCVVVDVSHEDPEVKFNWYVDGVEVHNAKTKPREEQYNSTYRVVSVLTVLHQDWLNGKEYKCKVSNKALPAPIEKTISKAKGQPREPQVYTLPPSRDELTKNQVSLTCLVKGFYPSDIAVLWSSQYELENNYKTTPPVLDSDGSFFLYSKLTVDKSRWQQGNVFACNVYHEALHNHYTFKNLALSPGK
notes: Fc part only
B8: LLB2-10-8.d22 (Fc fusion)
chain: APELLGGPSVFLFPPKPKDTLMISRTPEVTCVVVDVSHEDPEVKFNWYVDGVEVHNAKTKPREEQYNSTYRVVSVLTVLHQDWLNGKEYKCKVSNKALPAPIEKTISKAKGQPREPQVYTLPPSRDELTKNQVSLTCLVKGFYPSDIAVLWSSKFELENNYKTTPPVLDSDGSFFLYSKLTVDKSRWQQGNVFACNVYHEALHNHYTFKNLALSPGK
notes: Fc part only
B9: LLB2-10-8.d21 (Fc fusion)
chain: APELLGGPSVFLFPPKPKDTLMISRTPEVTCVVVDVSHEDPEVKFNWYVDGVEVHNAKTKPREEQYNSTYRVVSVLTVLHQDWLNGKEYKCKVSNKALPAPIEKTISKAKGQPREPQVYTLPPSRDELTKNQVSLTCLVKGFYPSDIAVLWSSRFVLENNYKTTPPVLDSDGSFFLYSKLTVDKSRWQQGNVFACNVYHEALHNHYTFKNLALSPGK
notes: Fc part only

Biological target: T1, circularly permuted human TfR apical …
Experiment: Biacore SPR

In order of falling Kd:
1. B2  9400 nM
2. B4  4900 nM
3. B3  2000 nM
4. B1  1800 nM

B5: no binding.

biological target: T2, human CD98hc; experiment: SPR (Biacore)
Experimental: Variants that bound with measurable affinity from this round of engineering are shown in Table A12 and the corresponding human binding affinity by surface plasmon resonance (SPR) using a Biacore™ machine are shown in Table 9B. Cell binding of the clones was also tested in HeLa cells for huCD98hc binding and CHO cells as a negative control.

In order of rising Kd:
1. B7  1800 nM
2. B9  2000 nM
3. B6  2300 nM
4. B8  5200 nM
